Target: the molecule itself
Assay: rotary-shadowing EM

| Protein | stoichiometry N |
| --- | --- |
| C-terminally TAP-tagged Myo1 with a deletion of the TD2 region (natural protein, S. cerevisiae, UniProt P08964 1-1928, looked up) MTGGQSCSSNMIVWIPDEKEVFVKGELMSTDINKNKFTGQEEQIGIVHPLDSTEVSNLVQVRISDVFPVNPSTFDKVENMSELTHLNEPSVLYNLEKRYDCDLIYTYSGLFLVAINPYHNLNLYSEDHINLYHNKHNRLSKSRLDENSHEKLPPHIFAIAEEAYENLLSEGKDQSILVTGESGAGKTENTKKILQYLASITSGSPSNIAPVSGSSIVESFEMKILQSNPILESFGNAQTVRNNNSSRFGKFIKIEFNEHGMINGAHIEWYLLEKSRIVHQNSKERNYHIFYQLLSGLDDSELKNLRLKSRNVKDYKILSNSNQDIIPGINDVENFKELLSALNIIGFSKDQIRWIFQVVAIILLIGNIEFVSDRAEQASFKNDVSAICSNLGVDEKDFQTAILRPRSKAGKEWVSQSKNSQQAKFILNALSRNLYERLFGYIVDMINKNLDHGSATLNYIGLLDIAGFEIFENNSFEQLCINYTNEKLQQFFNNHMFVLEQSEYLKENIQWDYIDYGKDLQLTIDLIESKGPPTGVLPLLDEEAVLPKSTDESFYSKLISTWDQNSSKFKRSRLKNGFILKHYAGDVEYTVEGWLSKNKDPLNDNLLSLLSSSQNDIISKLFQPEGEKSSSAGVEANISNQEVKKSARTSTFKTTSSRHREQQITLLNQLASTHPHFVRCIIPNNVKKVKTFNRRLILDQLRCNGVLEGIRLAREGYPNRIAFQEFFQRYRILYPENSTTTTFSSKLKASTKQNCEFLLTSLQLDTKVYKIGNTKLFFKAGVLADLEKQKDVKLNNIMIKLTATIRGYTVRKEITYHLQKLKKTRVIGNTFRLYNRLVKEDPWFNLFIRIKPLLTSSNDMTRTKKFNEQINKLKNDLQEMESKKKFLEEKNQKTVNELENTQDLLNQEKENLRKNESLLNRVKTSSETLQKQFDDLVSEKDEISREKLEVAQNLEEAHQKIQGLQETIREREATLEKLHSKNNELIKQISDLNCDISKEQSSQSLIKESKLKLENEIKRLKDVINSKEEEIKSFNDKLSSSEEDLDIKLVTLEKNCNIAMSRLQSLVTENSDLRSKNENFKKEKAALNNQLKNKESELLKMKEKIDNHKKELATFSKQRDDAVSEHGKITAELKETRIQLTEYKSNYQKIKEEYSNFQRETKEQEQKKRNSLVESLNDSKIKELEARLSQEISLNQYLNKRISGNSVETNISSTRRSTSYSDDVGDIIKNRDSISKYEEEIRYYKLENYKLQEILNESNGKLSQLTLDLRQSKSKEALLSEQLDRLQKDLESTERQKELLSSTIKQQKQQFENCMDDLQGNELRLREHIHALKQAEEDVKNMASIIEKLKTQNKQKEKLIWEREMERNDSDMQLQETLLELKRVQDVKKILSDDLAHLKERLSAVEDRSQYTDEINRLKEELNCSLKAETNLKKEFATLKYKLETSTNDSEAKISDLLKQLDHYTKVVEMLNNEKDAISLAEKELYQKYEALNTECESLKGKIVSLTKIKQELESDLNQKTDALQISNAALSSSTQKNKEITEKIKYLEETLQLQMEQNSRNGELVKTLQASCNGYKDKFDDEKQKNIDLYEENQTLQKLNTDLQLQLKNLHERLSDTTEKNAWLSKIHELENMVSLETDLKYEEMKKNKSLERAVEELQTKNSQQTDVIELANKNRSEFEEATLKYEAQISDLEKYISQQELEMKKSIRDNSSYRDKVQEMAQEIEFWKSRYESTMIGSKNIDSNNAQSKIFS | 2 |
| MBP-Myo1-tail-TD2Δ (domain or fragment, S. cerevisiae, UniProt P08964 856-1928, looked up) SSNDMTRTKKFNEQINKLKNDLQEMESKKKFLEEKNQKTVNELENTQDLLNQEKENLRKNESLLNRVKTSSETLQKQFDDLVSEKDEISREKLEVAQNLEEAHQKIQGLQETIREREATLEKLHSKNNELIKQISDLNCDISKEQSSQSLIKESKLKLENEIKRLKDVINSKEEEIKSFNDKLSSSEEDLDIKLVTLEKNCNIAMSRLQSLVTENSDLRSKNENFKKEKAALNNQLKNKESELLKMKEKIDNHKKELATFSKQRDDAVSEHGKITAELKETRIQLTEYKSNYQKIKEEYSNFQRETKEQEQKKRNSLVESLNDSKIKELEARLSQEISLNQYLNKRISGNSVETNISSTRRSTSYSDDVGDIIKNRDSISKYEEEIRYYKLENYKLQEILNESNGKLSQLTLDLRQSKSKEALLSEQLDRLQKDLESTERQKELLSSTIKQQKQQFENCMDDLQGNELRLREHIHALKQAEEDVKNMASIIEKLKTQNKQKEKLIWEREMERNDSDMQLQETLLELKRVQDVKKILSDDLAHLKERLSAVEDRSQYTDEINRLKEELNCSLKAETNLKKEFATLKYKLETSTNDSEAKISDLLKQLDHYTKVVEMLNNEKDAISLAEKELYQKYEALNTECESLKGKIVSLTKIKQELESDLNQKTDALQISNAALSSSTQKNKEITEKIKYLEETLQLQMEQNSRNGELVKTLQASCNGYKDKFDDEKQKNIDLYEENQTLQKLNTDLQLQLKNLHERLSDTTEKNAWLSKIHELENMVSLETDLKYEEMKKNKSLERAVEELQTKNSQQTDVIELANKNRSEFEEATLKYEAQISDLEKYISQQELEMKKSIRDNSSYRDKVQEMAQEIEFWKSRYESTMIGSKNIDSNNAQSKIFS | 2 |
| C-terminally TAP-tagged full-length Myo1 (natural protein, S. cerevisiae, UniProt P08964 1-1928, looked up) MTGGQSCSSNMIVWIPDEKEVFVKGELMSTDINKNKFTGQEEQIGIVHPLDSTEVSNLVQVRISDVFPVNPSTFDKVENMSELTHLNEPSVLYNLEKRYDCDLIYTYSGLFLVAINPYHNLNLYSEDHINLYHNKHNRLSKSRLDENSHEKLPPHIFAIAEEAYENLLSEGKDQSILVTGESGAGKTENTKKILQYLASITSGSPSNIAPVSGSSIVESFEMKILQSNPILESFGNAQTVRNNNSSRFGKFIKIEFNEHGMINGAHIEWYLLEKSRIVHQNSKERNYHIFYQLLSGLDDSELKNLRLKSRNVKDYKILSNSNQDIIPGINDVENFKELLSALNIIGFSKDQIRWIFQVVAIILLIGNIEFVSDRAEQASFKNDVSAICSNLGVDEKDFQTAILRPRSKAGKEWVSQSKNSQQAKFILNALSRNLYERLFGYIVDMINKNLDHGSATLNYIGLLDIAGFEIFENNSFEQLCINYTNEKLQQFFNNHMFVLEQSEYLKENIQWDYIDYGKDLQLTIDLIESKGPPTGVLPLLDEEAVLPKSTDESFYSKLISTWDQNSSKFKRSRLKNGFILKHYAGDVEYTVEGWLSKNKDPLNDNLLSLLSSSQNDIISKLFQPEGEKSSSAGVEANISNQEVKKSARTSTFKTTSSRHREQQITLLNQLASTHPHFVRCIIPNNVKKVKTFNRRLILDQLRCNGVLEGIRLAREGYPNRIAFQEFFQRYRILYPENSTTTTFSSKLKASTKQNCEFLLTSLQLDTKVYKIGNTKLFFKAGVLADLEKQKDVKLNNIMIKLTATIRGYTVRKEITYHLQKLKKTRVIGNTFRLYNRLVKEDPWFNLFIRIKPLLTSSNDMTRTKKFNEQINKLKNDLQEMESKKKFLEEKNQKTVNELENTQDLLNQEKENLRKNESLLNRVKTSSETLQKQFDDLVSEKDEISREKLEVAQNLEEAHQKIQGLQETIREREATLEKLHSKNNELIKQISDLNCDISKEQSSQSLIKESKLKLENEIKRLKDVINSKEEEIKSFNDKLSSSEEDLDIKLVTLEKNCNIAMSRLQSLVTENSDLRSKNENFKKEKAALNNQLKNKESELLKMKEKIDNHKKELATFSKQRDDAVSEHGKITAELKETRIQLTEYKSNYQKIKEEYSNFQRETKEQEQKKRNSLVESLNDSKIKELEARLSQEISLNQYLNKRISGNSVETNISSTRRSTSYSDDPLDKEDIIKKYYDLQLAFTEITRNLENEIEEKKNLISRLRFTETRLASSSFEDQKIKAQMKKLKKLIQDMDPSIPLDSILNEPLDNCPDKESDINKLMLEVDYLKRQLDIETRAHYDAENAISALHSKFRKIQGESSLSSSDIYKLKFEASEERVKSLEDKLKTMPLRDRTNLPVGDIIKNRDSISKYEEEIRYYKLENYKLQEILNESNGKLSQLTLDLRQSKSKEALLSEQLDRLQKDLESTERQKELLSSTIKQQKQQFENCMDDLQGNELRLREHIHALKQAEEDVKNMASIIEKLKTQNKQKEKLIWEREMERNDSDMQLQETLLELKRVQDVKKILSDDLAHLKERLSAVEDRSQYTDEINRLKEELNCSLKAETNLKKEFATLKYKLETSTNDSEAKISDLLKQLDHYTKVVEMLNNEKDAISLAEKELYQKYEALNTECESLKGKIVSLTKIKQELESDLNQKTDALQISNAALSSSTQKNKEITEKIKYLEETLQLQMEQNSRNGELVKTLQASCNGYKDKFDDEKQKNIDLYEENQTLQKLNTDLQLQLKNLHERLSDTTEKNAWLSKIHELENMVSLETDLKYEEMKKNKSLERAVEELQTKNSQQTDVIELANKNRSEFEEATLKYEAQISDLEKYISQQELEMKKSIRDNSSYRDKVQEMAQEIEFWKSRYESTMIGSKNIDSNNAQSKIFS | 2 |

Source: paper PMC3010076 (The Journal of Cell Biology, 2010)
